This note sets out measurements from patent publication US20060193821, “Aptamers to the human IL-12 cytokine family and their use as autoimmune disease therapeutics” (published 2006).

The target of data set [1] is T1, IL-23 (human, p19/p40 heterodimer) (Homo sapiens, UniProt Q9NPF7;P29460 SEQ:20-189,SEQ:23-328). The data set can be described thus: cell_activity; TransAM STAT3, PHA blasts; Table 35 gives 1 uM for full length. The conditions noted are these: tags: R&D Systems. As to the method: (§1) In summary, the cell-based assay was conducted by isolating the peripheral blood mononuclear cells (PBMCs) from whole blood using a Histopaque gradient (Sigma, St. Louis, Mo.). The PBMCs were cultured for 3 to 5 days at 37° C./5% CO₂ in Peripheral Blood Medium (Sigma) which contains PHA, supplemented with IL-2 (100 units/mL) (R&D Systems, Minneapolis, Minn.), to generate PHA Blasts. To test IL-23 aptamers, the PHA Blasts were washed twice with 1×PBS, then serum starved for four hours in RPMI, 0.20% FBS. After serum starvation, approximately 2 million cells were aliquotted into appropriately labeled eppendorf tubes. hIL-23 at a final constant concentration of 3 ng/mL (R&D Systems, Minneapolis, Minn.) was combined with a dilution series of various IL-23 aptamers as described in Example 1, and the cytokine/aptamer mixture was added to the aliquotted cells in a final volume of 100 μl and incubated at 37° C. for 10-12 minutes. The incubation reaction was stopped by adding 1 mL of ice-cold PBS with 1.5 mM Na₃VO₄. Cell lysates were made using the lysis buffer provided by the TransAM™ STAT 3 assay following the manufacturer's instructions. FIG. 20 depicts a flow summary of the protocol used for the cell based assay.
T1 sequence (Q9NPF7 20-189, chain 1 of 2): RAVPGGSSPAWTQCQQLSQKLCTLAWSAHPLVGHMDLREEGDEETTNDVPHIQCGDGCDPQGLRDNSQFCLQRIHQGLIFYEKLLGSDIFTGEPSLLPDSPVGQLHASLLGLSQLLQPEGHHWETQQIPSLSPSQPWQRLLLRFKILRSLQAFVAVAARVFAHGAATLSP
T1 sequence (P29460 23-328, chain 2 of 2): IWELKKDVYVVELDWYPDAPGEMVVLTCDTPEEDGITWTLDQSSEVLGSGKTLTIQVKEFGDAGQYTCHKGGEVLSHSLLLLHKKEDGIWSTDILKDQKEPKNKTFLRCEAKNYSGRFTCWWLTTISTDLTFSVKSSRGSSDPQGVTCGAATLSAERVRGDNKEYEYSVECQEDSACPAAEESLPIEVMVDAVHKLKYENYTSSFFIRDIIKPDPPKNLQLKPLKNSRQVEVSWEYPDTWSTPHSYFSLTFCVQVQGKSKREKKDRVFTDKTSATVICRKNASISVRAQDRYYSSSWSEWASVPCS
(§2) Full length clones from the rRfY selection described in Example 1A, and select minimized rRfY clones that were described in Example 2A. […]

Data set [2] concerns the target T1, IL-23 (human, p19/p40 heterodimer). Kind of data set: cell_activity; TransAM STAT3, PHA blasts; Table 35 gives 700 nM for full length. The conditions noted are these: tags: R&D Systems. As to the method: as §1, §2
The target is the same in data set [3]. The data set can be described thus: competition; direct +tRNA 117 nM. The conditions noted are these: tags: R&D Systems, carrier free. As to the method:
(§3) Several of the minimized constructs from the dRmY Selection 2 were also assayed in a competition format in which cold aptamer was titrated and competed away trace ³²P ATP labeled aptamer In the competition assay, the [IL-23] was held constant, the [trace labeled aptamer] was held constant, and the [unlabeled aptamer] was varied. The KD was calculated by fitting the following equation to the data: Fraction aptamer bound=amplitude*([aptamer]/(KD+[aptamer]))+background binding.
Table 25 below summarizes the minimized sequences and the parent clone from which they were derived, and Table 26 summarizes the binding characterization from direct binding assays (+/−tRNA) and competition binding assays for the minimized constructs tested.

Data set [4] shares this target. The data set can be described thus: cell_activity; TransAM STAT3, PHA blasts, 3 ng/mL hIL-23. The conditions noted are these: tags: R&D Systems. As to the method:
as §1, §2

Data set [5] has the same target. The data set can be described thus: filter; non functional, lacks G doubles. The conditions noted are these: tags: R&D Systems, carrier free.
The target is the same in data set [6]. Kind of data set: filter; DPBS Ca Mg, 0.1 mg/mL BSA. The conditions noted are these: tags: R&D Systems, carrier free. As to the method:
The dot blot binding assay previously described was used to characterize the relative potency of the majority of the aptamers synthesized. For KD determination, chemically synthesized aptamers were purified using denaturing polyacrylamide gel electrophoresis, 5′end labeled with γ-³²P ATP and were tested for direct binding to full human IL-23. An 8 point protein titration was used in the dot blot binding assay (either {100 nM, 30 nM, 10 nM, 3 nM, 1 nM, 300 pM, 100 pM, 0 pM} or {10 nM, 3 nM, 1 nM, 300 pM, 100 pM, 30 pM, 10 pM, 0 pM}) in Dulbecco's PBS (with Mg⁺⁺ and Ca⁺⁺) with 0.1 mg/mL BSA. KD values were calculated by fitting the equation y=(max/(1+K/protein))+yint using KaleidaGraph (KaleidaGraph v. 3.51, Synergy Software). Sequences of the ARC979 derivatives synthesized, purified and assayed for binding to IL-23 as well as the results of the protein binding characterization are tabulated below in Tables 29 and 30.

Data set [7] addresses IL-12 (human, p35/p40 heterodimer) (Homo sapiens, UniProt P29459;P29460 SEQ:57-253,SEQ:23-328). Kind of data set: cell_activity; IL-12/IL-18 induced IFN-gamma, PHA blasts. As to the method:
(§4) PHA Blasts were isolated and prepared as described above. Once isolated, PHA Blasts were cultured for 4 days before use (with no re-feeding the night before use). After culturing for 4 days, an appropriate number of cells (enough for 0.5×10^6 cells per well) were collected, pelleted by centrifugation and washed with RPMI 1640 and 0.2% FBS (repeated twice). These cells were then serum starved by placement into 2, 150 mm sterile culture dishes with 25 mL of RPMI 1640-0.2% FBS each for 2-3 hours. Following serum starvation, cells were plated in a 96 well microtiter plate at a density of 0.5×10^6 cells per 200 μl of serum starved media.
(§5) IL-12/IL-18 or IL-23/IL-18 was used to induce IFN-γ production in PHA Blasts as follows. 10 μl of IL-23 (R&D Systems) at a concentration of 60 ng/mL (or 10 μl of IL-12 at a concentration of 20 ng/mL), and 10 μl of IL-18 (MBL) at a concentration of 200 ng/mL were added to the appropriate wells. […] Following incubation, 200 μl of supernatant was removed from each well and either flash frozen at −80° C., or quantified immediately for IFN-γ. An ELISA kit was used to quantify the IL-23/IL-18 and IL-12/IL-18 induced IFN-γ in PHA Blasts according to the manufacturer's recommended protocol (Recombinant human IFN-γ Quantikine Kit, R&D Systems, Minneapolis, Minn.). The colorimetric readout was quantified using a 96 well plate reader and absorbance values were graphed.

The target in data set [8] is T1, IL-23 (human, p19/p40 heterodimer). Kind of data set: cell_activity; IL-23/IL-18 induced IFN-gamma, PHA blasts. The conditions noted are these: tags: R&D Systems, carrier free. As to the method:
as §4, §5

Data set [9] shares this target. Kind of data set: cell_activity; Pathscan pSTAT3, PHA blasts. The conditions noted are these: tags: R&D Systems, carrier free. As to the method:
(§6) PHA Blasts were isolated and prepared as described above and treated with hIL-23 at a final constant concentration of 6 ng/mL (R&D Systems, Minneapolis, Minn.) to induce STAT3 activation, instead of using 3 ng/mL as previously described with the TransAM™ assay. Clones were screened by using a 6-point […] titration from 0 to 700 nM in 3 fold dilutions in combination with a constant IL-23 concentration of 6 ng/mL of IL-23 (R&D Systems, Minneapolis, Minn.) to induce STAT3 activation, instead of using 3 ng/mL as previously described with the TransAM™ assay. Lysates of treated cells were prepared using the buffers provided by the Pathscan kit, and the assay was run according to the manufacturer's instructions. IC₅₀s for the full length clones were calculated from the dose response curves.

For data set [10] the target is unchanged. Kind of data set: filter; -tRNA; competition 8 nM. The conditions noted are these: tags: R&D Systems, carrier free. As to the method:
These molecules were gel purified and assayed for IL-23 binding using the dot blot assay as described above and compared to each other and to the parent molecule, ARC979. An 8 point IL-23 titration (0 nM to 300 nM, 3 fold serial dilutions) was used in the binding assay.

The target is the same in data set [11]. Kind of data set: cell_activity; Pathscan, +/-1; TransAM 40 nM. The conditions noted are these: tags: R&D Systems, carrier free; G4. As to the method:
as §6

The target is the same in data set [12]. The data set can be described thus: competition; direct +tRNA 69 nM. The conditions noted are these: tags: R&D Systems, carrier free. As to the method: The fraction aptamer bound vs. [IL-23] was used to calculate the KD by fitting the following equation to the data: Fraction aptamer bound=amplitude*([IL-23]/(KD+[IL-23]))+background binding.
as §3

Sequence of IL-12 (human, p35/p40 heterodimer) (P29459 23-219, chain 1 of 2): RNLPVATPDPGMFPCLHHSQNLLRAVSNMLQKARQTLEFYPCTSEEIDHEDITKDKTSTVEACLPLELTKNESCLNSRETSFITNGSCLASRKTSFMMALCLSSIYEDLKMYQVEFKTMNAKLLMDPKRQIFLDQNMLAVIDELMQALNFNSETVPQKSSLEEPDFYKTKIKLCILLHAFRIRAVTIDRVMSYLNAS
Sequence of IL-12 (human, p35/p40 heterodimer) (P29460 23-328, chain 2 of 2): as the sequence (P29460 23-328, chain 2 of 2) above

B1: AMX84-A10 (ssRNA)
RNA: GGGAAAAGCGAAUCAUACACAAGAAGUUUUUUGUGCUCUGAGUACUCAGCGUCCGUAAGGGAUAUGCUCCGCCAGAGACCAACCGAGAA
modifications: 2'-F C and U, 2'-OH A and G
In general, IC50 refers to the midpoint of a concentration-inhibition curve. In data set [1], B1 had an IC50 of 400 nM.

B2: AMX84-B10 (ssRNA)
RNA: GGGAAAAGCGAAUCAUACACAAGAAGUGCUUCAUGCGGCAAACUGCAUGACGUCGAAUAGAUAUGCUCCGCCAGAGACCAACCGAGAA
modifications: 2'-F C and U, 2'-OH A and G
In data set [2], B2 displayed an IC50 of over 1000 nM.

B3: ARC792 (mixed)
RNA: GGCAAGUAAUUGGGGAGUGCGGGCGGGG
modifications: deoxy A,G; 2'-OMe C,U
Broadly, the Kd is a measure of binding affinity in units of concentration. Regarding B3, binding in data set [3] was put at a Kd of 11 nM.

B4: AMX84-H12 family clone AMX91-H12 (ssRNA)
RNA: GGGAAAAGCGAAUCAUACACAAGACGUGUGCUUUAUGUAAACCAUAACGUUCCAUAAGGAAUAUGCUCCGCCAGAGACCAACCGAGAA
modifications: 2'-F C and U, 2'-OH A and G
B4 came in with an IC50 in [4] of 350 nM.

B5: ARC793 (mixed)
RNA: CUACAAGGCGGUACGGGGAGUGUGG
modifications: deoxy A,G; 2'-OMe C,U
As for B5, the binding result in data set [5] is listed as “no binding”.

B6: ARC1620 (mixed)
RNA: ACAGGCAAGUAAUUGGGGAGUGCGGGCGGGGUGU
modifications: 2'-OMe C,U and G16,G17,G24,G25,G30,G31; other A,G deoxy; PS 2-3; 3'-idT [PS 2-3; 2'-OMe at 2,6,10,13,14,16,17,21,23,24,25,27,30,31,32,34; other A,G deoxy; 3'-inverted dT at 35]
For B6, the Kd in data set [6] stood at 0.4 nM.

B7: ARC1988 (mixed)
RNA: ACAGGCAAGUAAUUGGGGAGUGCGGGCGGGGUGU
modifications: ARC1623 with 5' 40 kDa PEG; 3'-idT
In the case of B7, the IC50 was about 122 nM in data set [7] and about 4 nM in data set [8].

B8: ARC1624 (mixed)
RNA: ACAGGCAAGUAAUUGGGGAGUGCGGGCGGGGUGU
modifications: 2'-OMe C,U and G16,G17,G24,G25,G30,G31; other A,G deoxy; PS 25-26,27-28,28-29; 3'-idT [2'-OMe C2,C6,U10,U13,U14,G16,G17,U21,C23,G24,G25,C27,G30,G31,U32,U34; other A,G deoxy; PS 25-26,27-28,28-29 (N = PS linkage, left out); 3'-inverted dT 35]
On to B8, for which the IC50 in data set [9] worked out at 2 nM.

B9: ARC1163 (mixed)
RNA: ACAGGCAAGUAAUUGGGGAGUGCGGGCGGGGUGU
modifications: deoxy A,G; 2'-OMe C,U; PS 21-22 [PS between 21-22; 2'-OMe C,U at 2,6,10,13,14,21,23,27,32,34; deoxy A,G at all other positions]
In the case of B9, the Kd in [10] is 49 nM.

B10: ARC979 (mixed)
RNA: ACAGGCAAGUAAUUGGGGAGUGCGGGCGGGGUGU
modifications: deoxy A,G; 2'-OMe C,U
Take B10: the IC50 in data set [11] was found to be 6 nM.

B11: ARC794 (mixed)
RNA: GGCGGUACGGGGAGUGUGGGUUGGGGCCGG
modifications: deoxy A,G; 2'-OMe C,U
On to B11, for which, in data set [12], binding was put at a Kd of 14 nM.
